Measurements taken from patent US20230121197A1, “ANTIBODIES SPECIFICALLY BINDING THE CARBOXYMETHYLATED CATALYTIC SUBUNIT OF PROTEIN PHOSPHATASE 2A” (Medizinische Universität Wien, priority 2020, published 2023).

B1: 7C10-C5 monoclonal antibody (antibody, V domains shown)
VH: DVQLQESGPGLVKPSQSLSLTCSVTGYSITSGYYWNWIRQFPGNKLEWMGYISYDGSNNYNPSLKNRISITRDTSKNQFFLKLNSVTTEDTATYYCAGRFAYWGQGTLVTVSA
VL: DVLMTQTPLSLPVSLGDQASISCRSSQSIVHSNGNTYLEWYLQKPGQSPKLLIYKVSNRFSGVPDRFSGSGSGTDFTLKINRVEAEDLGVYYCFQGSHVPWTFGGGTKLEIK
notes: Used as hybridoma culture supernatant (ELISA, Western blot, IHC) or at 50 µg/mL (SPR); also called 7C10 X63; clone 7C10-C5
B2: 7C10-C5: α-carboxymethylation specific mouse monoclonal IgG1 antibody from single clone hybridoma 7C10-C5 (DSM ACC3350) (antibody)
heavy: MYRMQLLSCIALSLALVTNSDVQLQESGPGLVKPSQSLSLTCSVTGYSITSGYYWNWIRQFPGNKLEWMGYISYDGSNNYNPSLKNRISITRDTSKNQFFLKLNSVTTEDTATYYCAGRFAYWGQGTLVTVSAAKTTAPSVYPLAPVCGDTTGSSVTLGCLVKGYFPEPVTLTWNSGSLSSGVHTFPAVLQSDLYTLSSSVTVTSSTWPSQSITCNVAHPASSTKVDKKIEPRGPTIKPCPPCKCPAPNLLGGPSVFIFPPKIKDVLMISLSPIVTCVVVDVSEDDPDVQISWFVNNVEVHTAQTQTHREDYNSTLRVVSALPIQHQDWMSGKEFKCKVNNKDLPAPIERTISKPKGSVRAPQVYVLPPPEEEMTKKQVTLTCMVTDFMPEDIYVEWTNNGKTELNYKNTEPVLDSDGSYFMYSKLRVEKKNWVERNSYSCSVVHEGLHNHHTTKSFSRTPGK
light: MDMRVPAQLLGLLLLWLSGARCDVLMTQTPLSLPVSLGDQASISCRSSQSIVHSNGNTYLEWYLQKPGQSPKLLIYKVSNRFSGVPDRFSGSGSGTDFTLKINRVEAEDLGVYYCFQGSHVPWTFGGGTKLEIKADAAPTVSIFPPSSEQLTSGGASVVCFLNNFYPKDINVKWKIDGSERQNGVLNSWTDQDSKDSTYSMSSTLTLTKDEYERHNSYTCEATHKTSTSPIVKSFNRNEC
modifications: Amino acid sequence of the recombinant 7C10-C5 heavy chain; Amino acid sequence of the recombinant 7C10-C5 light chain

Legend:
[1] = biological target: T1, PP2Ac C-terminal peptide meL309, ac-HVTRRTPDYFL-CH3 (α-carboxymethylated) (human, SMILES …); experiment: SPR (Biacore T200), antibody captured by anti-mouse IgG on CM5 chip, peptide 5-160 nM as analyte, steady state analysis, 25 °C
T1 construct: also called Y307-meL309; mePP2Ac
T1 peptide: Ac-HVTRRTPDYFL-OMe
Description: The differential affinity of anti-carboxymethylated PP2Ac antibodies, 7C10-C5 and 2A10, to carboxymethylated PP2A catalytic subunit versus noncarboxymethylated PP2A catalytic subunit was determined by surface plasmon resonance (SPR) on a Biacore T200 (GE Healthcare) at the Core Facility Biomolecular & Cellular Analysis (University of Natural Resources and Life Sciences Vienna BOKU). The affinity of 7C10-C5 for carboxymethylated and noncarboxymethylated catalytic subunit of PP4 (PP4c), a PP2A-related phosphatase, was also determined.
Series S Sensor Chip CM5 (GE Healthcare, 10296958) Flow cells (e.g. Flow cells 3 and 4 for the data shown in Table 5 and FIG. 32) were coated with 30 μg/mL anti-mouse IgG antibody (in immobilization buffer) using the mouse antibody capture kit (GE Healthcare, BR-1008-38, Lot 10294578) via amine coupling according to the manufacturer's protocol (i.e. https://www.cytivalifesciences. com/en/us/shop/protein-analysis/spr-lab el-free-analysis/capture-reagents/mouse-antibody-capture-kit-p-05986). The immobilisation levels obtained were 11620.2 RU (Flow cell 1), 10836.5 RU (Flow cell 2), 11605.9 RU (Flow cell 3) and 11333.9 RU (Flow cell 4), and thus were within the specifications. […]
SPR experiments were performed with the BiacoreT200 instrument (Cytiva). […] The sensorgrams obtained were analyzed with BiacoreT200 Evaluation Software (version 3.1).

[2] = biological target: T2, mouse HA PP6c, carboxymethylated (immunoprecipitated from NIH3T3 cells) (mouse, UniProt Q9CQR6 1-305, C-terminal leucine α-carboxyl methyl ester (cellular methylation)); experiment: Western blot of anti-HA immunoprecipitates from NIH3T3 cells, with quantification, N=3
T2 construct: mature; also called methylated PP6c; not shown: HA tag
T2 sequence (looked up): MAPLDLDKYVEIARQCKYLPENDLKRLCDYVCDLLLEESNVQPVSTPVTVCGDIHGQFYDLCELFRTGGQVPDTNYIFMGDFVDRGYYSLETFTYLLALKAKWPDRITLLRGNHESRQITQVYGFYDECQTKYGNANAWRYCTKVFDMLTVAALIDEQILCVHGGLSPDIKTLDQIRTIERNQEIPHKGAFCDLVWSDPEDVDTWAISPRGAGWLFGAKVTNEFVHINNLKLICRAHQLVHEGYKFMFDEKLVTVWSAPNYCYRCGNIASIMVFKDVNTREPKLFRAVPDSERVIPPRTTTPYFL
Excerpt: (A) Alignment of the C-termini of mammalian catalytic PP2Ac, PP4c and PP6c subunits (B) Immunoblotting of anti HA-immunoprecipitates of NIH3T3 cells either infected with retroviral supernatants of pBabe hygro (control) or pBabe hygro HA-PP2Ac (label “HA-PP2A), pBabe hygro HA-PP4c (label “HA-PP4”) or pBabe hygro HA-PP6c (label HA-PP6) using indicated antibodies. The label “7C10” refers to the 7C10-C5 monoclonal antibody. To equilibrate HA levels, 2 times more of the HA-PP4c and 3 times more of the HA-PP6c immunoprecipitates was loaded than HA-PP2Ac. The panel originates from 3 different blotting membranes for each antibody indicated in the panel. The blots are representative of N=3 independent immunoprecipitation experiments. The 2A10 and 7C10-C5 signals were quantified from N=3 independent experiments, normalized to the HA levels and the HA-PP2Ac signals were set to 1. Average and standard deviation (error bars) are shown. Statistical significance was assessed using ANOVA followed by Tukey's HSD as a post-hoc test. […]

HA-PP6c = biological target: T3, HA-PP6c (Mus musculus, UniProt Q9CQR6); experiment: Immunoblotting of anti-HA immunoprecipitates of NIH3T3 cells, PP6c; assay type: binding
T3 construct: expressed in transfected cells; host or cells: NIH3T3 mouse fibroblasts, retroviral pBabe hygro HA-PP6c
T3 sequence (Q9CQR6 1-305): T2 sequence (looked up)
Excerpt: The catalytic subunits of protein phosphatase 4 (PP4c) and 6 (PP6c) are closely related to PP2Ac with approximately 50% sequence identity. PP2Ac, PP4c and PP6c share the C-terminal DYFL or YFL motif, respectively (FIG. 8A). Therefore, a potential cross-reactivity of 7C10-C5 with α-carboxymethylated PP4c and/or PP6c was examined and compared to another anti-carboxymethyl-PP2Ac antibody 2A10. 2A10 is a carboxymethyl-PP2Ac specific antibody that has been raised against a larger C-terminal PP2Ac peptide (amino acids 302-309, carboxymethylated Leu^309) and that has been shown before to cross-react with α-carboxymethylated PP4c (Lee (2014), Biochem Biophys Res Commun 452, 42-47). HA tagged human PP2Ac a, mouse HA PP4c or mouse HA PP6c from NIH3T3 mouse fibroblasts stably expressing these HA-tagged proteins were immunoprecipitated. The precipitated proteins were then analyzed by immunoblotting with anti-carboxymethyl-PP2Ac antibodies 7C10-C5 or 2A10.
Specifically, 500 μl corresponding to 1 mg of whole cell protein lysates of NIH3T3 mouse fibroblasts were incubated with anti-hemagglutinin (HA) antibody (clone 12CA5) crosslinked to BSA-coated protein A-Sepharose beads (GE-Healthcare) to immunoprecipitate HA-epitope tagged PP2Ac, PP4c or PP6c for 1 h. […]

Molecule | Kd [1] | binding result [2] | detection of PP6c (HA-PP6c; Western blot of HA immunoprecipitates) | binding to carboxymethylated PP2Ac stronger than to carboxymethylated PP6c (HA-PP6c; Western blot, suggested since no discernable signal)
B1 | 11 nM | no binding | – | –
B2 | – | – | did not detect | 100-fold or even 500-fold
